# According to patent publication US11661611:
# Experiments:
# Experiment in all cases: cell_activity
# [1] = tested on: ZFN 59489 (synthetic construct); details: indels with partner 59488, 6 ug mRNA, activated T cells; 84 at 2 ug, 60 at 0.5 ug
# [2] = tested on: ZFN 59580 (synthetic construct); details: indels with partner 59581, 6 ug mRNA, activated T cells; 83 at 2 ug, 72 at 0.5 ug
# [3] = tested on: ZFN 59557 (synthetic construct); details: indels with partner 59558, 6 ug mRNA, activated T cells; 80 at 2 ug, 55 at 0.5 ug
# [4] = tested on: ZFN 59581 (synthetic construct); details: indels with partner 59580, 6 ug mRNA, activated T cells; 83 at 2 ug, 72 at 0.5 ug
# [5] = tested on: ZFN 59558 (synthetic construct); details: indels with partner 59557, 6 ug mRNA, activated T cells; 80 at 2 ug, 55 at 0.5 ug
# [6] = tested on: ZFN 59441 (synthetic construct); details: indels with partner 59440, 6 ug mRNA, activated T cells; 82 at 2 ug, 59 at 0.5 ug
# [7] = tested on: ZFN 59440 (synthetic construct); details: indels with partner 59441, 6 ug mRNA, activated T cells; 82 at 2 ug, 59 at 0.5 ug; F6 printed ATCCLAH in Table 1, ATCGLAH in claim
# [8] = tested on: ZFN 59488 (synthetic construct); details: indels with partner 59489, 6 ug mRNA, activated T cells; 84 at 2 ug, 60 at 0.5 ug
sequence,measurement,setting,value
GAGGAGGTGGCAGAGGGTACCCCAGCCC (double strand) [CISH exon 2 site 59489],activity,[1],89%
CCGGAAAGGCCAGGATGCGTGGCCTGGA (double strand) [CISH exon 3 site 59580],activity,[2],82%
GAGTCCAGACGGAAGCTGGAGTCGGCAT (double strand) [CISH exon 3 site 59557],activity,[3],84%
ATAGTGCTGCACAAGGCTGACCACATCC (double strand) [CISH exon 3 site 59581],activity,[4],82%
GATGCGTGGCCTGGACAAGCAGTTGGAG (double strand) [CISH exon 3 site 59558],activity,[5],84%
GTGGAGCGGACTGGGCAGCGGCCCCTGT (double strand) [CISH exon 2 site 59441],activity,[6],84%
CCAGCAAAGGACGAGGTCTAGAAGGCAG (double strand) [CISH exon 2 site 59440],activity,[7],84%
GGAAGGCCCCAGCAGGCAAGGGCTGCAT (double strand) [CISH exon 2 site 59488],activity,[8],89%
